Measured values reported in KR20140138533A (dated 2014).

Molecular target: T1, 재조합 인슐린 유사 성장인자-1 수용체 (IGF-1R, R&D system, 391-GR), extracellular domain Met1-Asn932 (human, UniProt P08069 31-932)
T1 construct: range 1-932; Bought recombinant protein; also called 재조합 IGF-1R; hIGF-1R
Assay: SPR (BiaCore T200), MKJP2 captured on anti-human IgG Fc CM5 chip, IGF-1R injected at 0.78-12.5 nM

T1 sequence (P08069 31-932 limits assumed): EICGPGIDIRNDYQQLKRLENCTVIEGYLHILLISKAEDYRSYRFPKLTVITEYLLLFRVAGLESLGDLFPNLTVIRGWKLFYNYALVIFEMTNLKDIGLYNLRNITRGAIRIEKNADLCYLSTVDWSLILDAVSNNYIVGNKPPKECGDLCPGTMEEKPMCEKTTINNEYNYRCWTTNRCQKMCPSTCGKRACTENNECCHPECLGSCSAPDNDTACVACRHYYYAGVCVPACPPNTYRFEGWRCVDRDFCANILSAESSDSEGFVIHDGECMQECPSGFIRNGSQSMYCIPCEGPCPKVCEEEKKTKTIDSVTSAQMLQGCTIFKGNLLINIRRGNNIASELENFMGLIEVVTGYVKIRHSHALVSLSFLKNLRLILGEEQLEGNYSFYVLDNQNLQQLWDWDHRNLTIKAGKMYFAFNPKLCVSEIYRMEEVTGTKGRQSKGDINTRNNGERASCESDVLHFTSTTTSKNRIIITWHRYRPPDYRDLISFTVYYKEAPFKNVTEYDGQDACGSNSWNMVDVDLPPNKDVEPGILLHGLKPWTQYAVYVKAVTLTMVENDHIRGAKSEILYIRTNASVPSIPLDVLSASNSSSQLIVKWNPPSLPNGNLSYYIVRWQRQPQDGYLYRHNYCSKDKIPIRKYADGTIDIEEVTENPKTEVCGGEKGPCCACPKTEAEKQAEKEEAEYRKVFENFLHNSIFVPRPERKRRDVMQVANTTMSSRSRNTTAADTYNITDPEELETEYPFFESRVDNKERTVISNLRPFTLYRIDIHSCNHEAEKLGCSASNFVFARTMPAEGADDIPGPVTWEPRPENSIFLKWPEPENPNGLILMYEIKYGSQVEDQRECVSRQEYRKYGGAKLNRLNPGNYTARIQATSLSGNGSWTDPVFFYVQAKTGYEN

B1: 인간 단일클론항체 MKJP2 (전체 IgG) (antibody, V domains shown)
VH: EVQLLESGGGLAQPGGSLRLSCAASGFTFSGYAMSWVRQAPGKGLEWVSAISSDGGSTYYADSVKGRFTISRDNSKNTLYLQMNSLRAEDTAVYYCARDPWFSRWTAFDYWGQGTLVTVSS
VL: QSVLTQPPSASGTPGQRVTISCSGSSSNIGNNAVNWYQQLPGTAPKLLIYSNSKRPSGVPDRFSGSKSGTSASLAISGLRSEDEADYYCGTWDYSLSGYVFGGGTKLTVLG
notes: Variable regions were cloned into the vectors E-A12H-ID (heavy) and pEA12L-ID (light); also called MKJP2 항체; 항 IGF-1R 항체 MKJP2
For B1, the Kd was 173 pM.
